The series in a line: soluble fraction after stress (log2 fold change); higher = more stays soluble; pooled small domains, quantitative proteomics. The settings on record: stress: 75 degC.
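Note: 20 min heating vs room temperature control held 20 min.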

With “HMEKDEYIFVDIDGAVFNPGVYKLIAGSRVIDAINLAGGLKEKAFTQNLNKARKLVDGEKIYIYLEGDEE”, the “soluble fraction (log2)” value was -0.552.

Take “HMEKDRDKRIRKRVLTALKRNDKKMTDKAFALLTSRIRDESILDQEVLKLIGYVGDRTTIDSKDINIVVAE”: the “soluble fraction (log2)” value was -0.392. As to “HMEKEEELNSIRPDLDGNDIMEILGVPAGPKVGKAYNYLLNVRLDEGPLSRAEAISRLEAWWENQ”, the “soluble fraction (log2)” value was -0.168. Take “HMEKELVSDFASRISTARSSKGWNHAELGKRMAETVNVIKSAESGKPPTDSVVKKLERVLGITLMEV”: the “soluble fraction (log2)” value was -0.0517. Under “HMEKEYMKNVVGMEYRQARVLLGDMGLELAFQPVYETSDKYPTDVVVSTEPAADQPLTKGQTVILHIST” stands -0.332; under “HMEKGNEEALEQAREAILAVQSGEKYVDLDPANAAIRRKQHALAQASDLVSQSYGKDPNRYVRIFR”, 0.233; under “HMEKINLLVENNDNYRLDKIIALNMEELSRTQIQEMIGQGLVLVNGKVEKASYKTKLNDQIEITIED”, -0.0065.

Consider “HMEKKKVPEVAGQDEAAARNVMTNSGFVVDVEQKEDDNVPAGKVITTAPAGGVEVVEGTKIILYVSKGSN”, for which the “soluble fraction (log2)” value is -0.052. Under “HMEKKPYGEMHNVMLTDEELEKLRHDYPAHFAEYIQRLSLHIDAKGARYKSHYAVIRKWLIADGVKA” stands -2.36; under “HMEKLIRIKRLIKQLNEYRDSYYNEARPVVSDAAYDKLFDELSELEKETGVVYANSPTQTVG”, 0.0942; under “HMEKPTEITLSNRVSVQELAEKMYVSETDIIRTLFLDGRIININQVLDIDTAIRVGEQLGIKIKII”, -2.14. For “HMEKPTRNKLVEIIIQNKNVTTEQMANLLNISRRAVAKHIKKLQEEGIIRRIGPDFGGHWEIVK”, the “soluble fraction (log2)” value is -0.294. For the sequence “HMEKPYTPPANLNEIQSYEELSKAVQYYNKVKDAATTDADRLKAQQSIDTLEDMRKAWDAASST”, the “soluble fraction (log2)” value came to 0.328. As for “HMEKSLSAQVYEKIKAGIISLKYPPGSVLKERELSESLGVSRTPVREAIQRLSQESWLVPGEGKRMQVRP”, the “soluble fraction (log2)” value was -0.0542.

Consider “HMEKTLAERVNDILAEIKMTKQELAMQLNISRSAVSQYLNGKYSSNPEAIEARLRDFVSSYDRG”, for which the “soluble fraction (log2)” value is -0.292. Turning to “HMEKYIVEAEEQGKRLDMYISSKDEELTRTSAQRLIEQGDILVNNKKVKVAYKVSEGDIIAVEKQ”, the “soluble fraction (log2)” value is -0.0711. The result for “HMELDLPLEELGLSTRVLHSLKEEGIESVRALLALNLKDLKNIPGIGERSLEEIKEALEKKGFTLK” reads -0.103; that for “HMELEENTERVLNILIENDIISENDIAEKLEVKINGARKALYKLKEVGFVEYTKERDEEKKWWYIYFWKLN”, -0.132; that for “HMELEKIRPDLDGLEIMAILGISPSPIVGRAYQYLLDLRMDRGPLGPDAAKAELLNWWSLNQPK”, -1.66. Turning to “HMELGRQDSAQLGRWAAGILAKNGKKITGRTMEFFLSRTGDDMENISSELEKLISYTLGREVITEEDIEAV”, the “soluble fraction (log2)” value was -0.263. Consider “HMELGWYVRLRRRELGLSVTALAEKAGMSQSYLSQIETGDRGNPSPESLRSLAEALEVSPRELESLV”, for which the “soluble fraction (log2)” value is -2.82.

Consider “HMELMKPPGYWQSLENAIYESKKVIKEHGFDTLPSSNKLRELDYHGLSRAISVHHSGFPNFREIMNQELGI”, for which the “soluble fraction (log2)” value is -0.00652. On to “HMELNDEELIKGIQELLTKIGYDPGEINGVLGIKTSSAISAFQQSRNKAITGEADLDLLVQLQIELRKITT”, for which the “soluble fraction (log2)” value was -1.86. The result for “HMELNGVSETAKSVYSIILNNSSTVDDIVIKTKLPAAKVMQALTELELNDAVERKSGGVYALP” reads 0.0577. Regarding “HMELPADLATVLSVDDIRAIALAEVPGSTITGVELEREEGVLVYKVKFNDGSYKLYDANTGELV”, the “soluble fraction (log2)” value came out at 0.105.

As for “HMELPPLEPIDRILVVQQPINIREQPGVLAKKIGRVSSGETLTILAKVSGQDWYFVETDNGGRGYVFKRV”, the “soluble fraction (log2)” value was -1.15. Regarding “HMELQYSQEIEEAQKILENLGLYRGEIDGINGINTKSAIREFQRKSGLVVDGILGPNTTNALSKGSDAYIT”, the “soluble fraction (log2)” value amounted to 0.0481. Consider “HMELVQIIGNNIRDLMTTRSVTITDLANYLNVSRQTLQNYLRGSNIIDSVKLVAVSDFFDVPVESLLQSK”, for which the “soluble fraction (log2)” value was -1.45. As for “HMEMGNKIKELRTKLGITQEELSKTLNVSSQAVSKWENGGLPDLELIPEIAKYFNVTTDYLFDIK”, the “soluble fraction (log2)” value was -0.187.

In the case of “HMEMKVIPFNQMTRDQFDQLDRFLGRLAAAQAMGSLRLTKAQQNYFLNQVKQLDLYRKRILN”, the “soluble fraction (log2)” value is -1.96. Consider “HMEMTSREIIKRLEEDGWYHVKTTGDHYQMKHPTKPGKVTIVHPAKDLSIGTLRSIEKQSGVRL”, for which the “soluble fraction (log2)” value is -0.18. “HMEMVSMPGLTGSTLEFATKTLTENELKYEVVYIVDASAESGLIIRTYPTEGEMVSKKTSTIYLYIKE”: the “soluble fraction (log2)” value is -3.4. As for “HMENDGQFLRAEREKYGLTLTDIYEHTHIPIKKLKAYEMWEEEMPPRTRALLELYFDQVAFEYDS”, the “soluble fraction (log2)” value is -0.862. In the case of “HMENDPYEILGIARSASDDEIKAKYRALTRENHPDILMAKGVPQEFIDLANEKMAVINAAYDKIEKER”, the “soluble fraction (log2)” value was 0.407. Take “HMENEDMTGDIRVIDYIRNVAEYIQTTKGQASASQMLDRFLFPPELQYTPLDKLSGGEQRRLYLLKVLMEA”: the “soluble fraction (log2)” value amounted to 0.0433. As to “HMENEFEAYSDGSSIQLNDPSKATYVVFDRQGRLLHLFQNHSLSSLSIERKNQILIITRETADGVSVKKIV”, the “soluble fraction (log2)” value is -0.53. Turning to “HMENEIPVPELVGMSEADAAAKLASLGLERDTQREATADEESVGKVLRQEPTPGEYVDEGHKVTIWVGE”, the “soluble fraction (log2)” value is 0.184.

Take “HMENFSTLFSRLKEERGLSNKQISSFTGAPIKEVKKWESGMGIPTEKRIVAALEGILGSEISKAI”: the “soluble fraction (log2)” value is -0.125.

“HMENHILIIDDDLMLLKTAEEILSDQYNVSVAKSGIQALNLLNKNIIPDLILLDIDMPQMDGYETL”: the “soluble fraction (log2)” value is -0.0633. For the sequence “HMENIIFDIGFHKGEDTLFYLLKGYRVIAVDADPDLINEWQNIFKKYIENGKLLLLNYVISDT”, the “soluble fraction (log2)” value was -1.29. Consider “HMENISVESKMKLLLKSLKTRDFISLPELVLKGESKLAISVILVAALELNRKGYIEVVQAEQFGEIYFKNT”, for which the “soluble fraction (log2)” value is -0.173. As for “HMENKVLVITEEEKGKRLDVYLAAALEVSRSYAQQLIQGEDVVVNDKQVKANYRLSEGDVVQVQLD”, the “soluble fraction (log2)” value was determined as 1.01. In the case of “HMENLIEELTAKNKEYIHSVTKQLILVGKSDEEVKEILNDILPQIIEGQKSGIIARKLLGAPTEFVSQYQP”, the “soluble fraction (log2)” value is -0.269. As to “HMENLQLQQLVKGLPEKMQEIVILRFSQELTMREIADIVNLPMRTVQSQLRLALKILKKEMG”, the “soluble fraction (log2)” value was -0.682. Turning to “HMENLSFNINSEEEGQRIDKYLSVMIEGKSRSFVQGLIEEKKVKANSKVIKSNYKLKKGDFIEVEVPEPV”, the “soluble fraction (log2)” value came out at 0.289. Under “HMENLSGNDIKYLRKKYNLTQKELADALGLQKFGDRTIRRWEAEETHPSKLEQSSIQSFFNSLK” stands -0.0716. On to “HMENLTLVIGNKLKNIRNSRNLSLDDVAELTGVSKAMLGQIERGKSNPTVSTLWKISTGLRVSFSSFIDE”, for which the “soluble fraction (log2)” value is -3.44. Under “HMENLVPVVVATTNIEPRTQITDAMVKVEQIPALGRNESMLEDPALVVGGYATGKIYAGQSFIQPMVSK” stands 0.351.

On to “HMENNIILNYVKDNLNITEKDAKDLIELLGSDYYHIKNETNKIAAFLDGQPYSFEKIKNLISIDKEY”, for which the “soluble fraction (log2)” value came to 0.0409. The result for “HMENPLETYYSQWVSAIKREHPEASFVKDTDGKYYVEGLTKNRLAVIYENPHLVRLVNATTNLHVE” reads -0.567. Under “HMENPVPVIITDQNFQPLLWKNVGVPTDTIFHELSPENQKKLENLMKTMVQMPLTDDGRISGYAYYSK” stands 0.0767.

For the sequence “HMENQFNDWSLTPSEKEVALFMLKGLSTQEIAAARNTKEKTVRQQASAVYAKSQLDGRYALAAWFFEDI”, the “soluble fraction (log2)” value was -0.702. For the sequence “HMENQMIIYIDENDENKRLDSYLSEITPDYSRSKIQNFIKNGNVTVNDSNKKPSYLLKENDKISFELPQQ”, the “soluble fraction (log2)” value is -0.0893. Consider “HMENSLLSESLAKIYIKTHRYERAYEILSRLSLAVPEKNAYFADQLRFLRKVMLAESFRKQHS”, for which the “soluble fraction (log2)” value was found to be 0.0207. Consider “HMENTSPMTPEQSKALMAYLTKRHGDSREAYLSELSQFFGRPLSSSRELTKADVSEFLNAIN”, for which the “soluble fraction (log2)” value amounted to 0.0561. For “HMENVVESIYNKMVESITNGQWAAGSKIPTENELAKTYQVSRSSVRQAISRLKALGLLESRQGSGTVIKK”, the “soluble fraction (log2)” value was -0.0436. Under “HMENWMPNLVNQDKRLAINTLRELGFTEEAGNLVIREETSEDVTKDYVISTDPVAETDLADVEKVTLVVSS” stands 0.116; under “HMENYIEQLTAKNSEYIHVVTRELVKIGKSDEEIKAILSDILPQIVAAQDQRVLAKDILGTPSEFTAKYAP”, 0.462.

For “HMEPDDLTVIKGIGPVAAKDLNEQGIITFAQLAKLSDKDVAKIDEHMPFSADQIKDWREQAKELAK”, the “soluble fraction (log2)” value was determined as 0.739. As to “HMEPDEIVLDHRKRIENSDAIVLIAPIWNFRMPAILEGWIDKVLAPPWAFKFKKLFGNYGYPVGNLKG”, the “soluble fraction (log2)” value turned out to be 0.0917. Under “HMEPDTVVVPNFVGKVYASEIEGNEAYSDFTFVIKEGNDPEQDIGVVLKQTPNEGLEVKKGKEITLTINQ” stands 0.031; under “HMEPEAKIDFILKAAQKRLGLYGYEKTTMQEIAADINMSKAALYYYFPDKESLFKAVVENEQEEYFH”, -1.97. On to “HMEPEDVIAMERYLASGAIKGIGVTLAGRIIKKFQKETFHIIEEEPERLSEVKGISEKLAREIYQQFTQK”, for which the “soluble fraction (log2)” value is -1.11. Consider “HMEPERRHLEVPAEAEGERIDRFLASQLENLSRSRIQALIKAGYVRNRRGTIEDPGLRVKPGDAFVVDLPP”, for which the “soluble fraction (log2)” value turned out to be 0.354. For the sequence “HMEPEVEITYFKPDERKAGGAYVTVTGAVIKVDDFERLITMQDGTKIPMDDILSIDGELFLS”, the “soluble fraction (log2)” value is -0.502.

Turning to “HMEPGEVQVDGLRFIAQPQERNDFEVALEQFRAGNFAAARKSFAAFINTYKQSGYLPSARFW”, the “soluble fraction (log2)” value was 0.0135. As to “HMEPLKLGDATGDGKINLQDVLEMQKHMAGILVLKGKFFTAADVNGNGKIELVDVLSVQKYLAGVTAEV”, the “soluble fraction (log2)” value turned out to be 0.11.

As to “HMEPLVSKVFQVSYQKTADLVALIKSEDSKLLSARGTLISDERTSQIFVQDTPTRLERISMIVNGL”, the “soluble fraction (log2)” value is -0.889.

Consider “HMEPMNMYSSIKKVIGVVSGKGGVGKSLVTASLARMMRAKGYHVGIMDADITGPSIPKMYGLHEMA”, for which the “soluble fraction (log2)” value stood at 0.395. With “HMEPVDYEALRKELMQKVMGLFTQSRDVGIQILSSFGAKKLSDVPDDKLVAFAASVDKALAG”, the “soluble fraction (log2)” value was -0.193.

Values taken from the domain aggregation screens of Martell et al. (2025).
